Data from the supplement of paper PMC9170038.

What was measured:
[1] = tested on: MS2 coat protein; assay: apparent KD of MS2 coat protein; designed switch direction (-1 OFF switch, 1 ON switch): 1; higher = weaker reporter binding; details: Eterna round: R98
Experimental: (§1)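 RNA-MaP: designed FMN/MS2 RNA switches (84 nt design region) are transcribed on-chip within common flanks and titrated with SNAP-549-labelled MS2 coat protein (about 1-3000 nM) in 100 mM Tris pH 7.5, 80 mM KCl, 4 mM MgCl2, without or with 200 uM FMN. Median apparent KD per design; activation ratio = KD,OFF / KD,ON.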

[2] = tested on: MS2 coat protein; assay: apparent KD of MS2 coat protein; higher = weaker reporter binding; details: Eterna round: R101
Experimental: as §1

[3] = tested on: MS2 coat protein; assay: apparent KD of MS2 coat protein, switch ON state; designed switch direction (-1 OFF switch, 1 ON switch): 1; higher = weaker reporter binding; details: FMN input: 0 or 200 uM; Eterna round: R93 (includes R88 designs)
Method in brief: (§2)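 For every design, apparent KD is the median of normalised binding-curve fits from its clusters. The RNA switches were transcribed on-chip from Illumina sequencing clusters and titrated with SNAP-549-labelled MS2 coat protein (twofold steps, 0.7 or 1.5 nM to 3 µM; 0.8–1.5 h to 10–20 min per step). Titrations used 100 mM Tris-HCl pH 7.5, 80 mM KCl, 4 mM MgCl2, without or with constant ligand.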

[4] = tested on: MS2 coat protein; assay: apparent KD of MS2 coat protein, switch OFF state (with FMN for OFF switches, without FMN for ON switches); designed switch direction (-1 OFF switch, 1 ON switch): 1; higher = weaker reporter binding; details: FMN input: 0 or 200 uM; Eterna round: R93 (includes R88 designs)
Method in brief: as §2

Row | Sequence | apparent KD of MS2 coat protein ([1]; input ligand: FMN 200 uM) | apparent KD of MS2 coat protein ([1]; input ligand: none) | further results
1 | AAAACAUGAGGAUCACCCAUGUAAAGAACGGUUAAUAAAAGUGAGGAUAUACAAAAUUUUAUAUAGUAGAAGGCACUGGGUACA [JR_SSNG3_Sub008] | 23.9 nM | 20.6 nM | 
2 | AAAGAUUUUUAAGGAUAUCAGUGGCAAAGCCACUGAGAAGGUGAGGAUCACCCACCUACGUGACCCUGGAAACAGGGUCACGAA [#SharedSequence - ExNG1-14] (puzzle (switch architecture): Exclusion NG 1) |  |  | apparent KD of MS2 coat protein ([2]; input ligand: FMN 200 uM): 14.7 nM; apparent KD of MS2 coat protein ([2]; input ligand: none): 13.2 nM
3 | AAAUAAAUUGAAGGAUAUGACCCUCGAGGUGACUAAAAGUCACCUCGAGGGUCAGAAGGUCGAGGAUCACCCGACCUAAAUAAA [#SharedSequence SLExNG1: 4-1] (puzzle (switch architecture): Small Loop Exclusion NG 1) |  |  | apparent KD of MS2 coat protein ([2]; input ligand: FMN 200 uM): 8.19 nM; apparent KD of MS2 coat protein ([2]; input ligand: none): 7.16 nM
4 | AAGAAGCUCACAGGAUAUCAGUAUAUGCUAUCUAGCGUAUUAAUGAACUGCUGAGAAGGGUGAGACAUGAGGAUCACCCAUGUA [Angeon] (puzzle (switch architecture): Small Loop Same State NG 1) |  |  | apparent KD of MS2 coat protein ([2]; input ligand: FMN 200 uM): 54 nM; apparent KD of MS2 coat protein ([2]; input ligand: none): 120 nM
5 | AAUAAACAAUAAAAGACUGGAGCAAACUUUUGAGGAUCACCCAGAAGGCGUCACCUAAUAGGUGACGAGGAUAUGGAGCUCCAG [#SharedSequence IExNG# - 4] (puzzle (switch architecture): Inverted Exclusion NG 3) |  |  | apparent KD of MS2 coat protein ([2]; input ligand: FMN 200 uM): 135 nM; apparent KD of MS2 coat protein ([2]; input ligand: none): 17.3 nM
6 | AAUAAUUCUCAAGGAUAUCAGUGGCAAAGCCACUGAGAAGGUGAGGAUCACCCACCUACGUGACGCUGGAAACAGCGUCACGAA [#SharedSequence ExNG1 - 34] (puzzle (switch architecture): Exclusion NG 1) |  |  | apparent KD of MS2 coat protein ([2]; input ligand: FMN 200 uM): 164 nM; apparent KD of MS2 coat protein ([2]; input ligand: none): 30.5 nM
7 | ACACGUCGUGAGAAGGAGGAUCACCCUUUCGAAAGAAAUAGCCACCGUGAAAACGGUGGCAAAUCCUAGGAUAUCACGACGUGA [#SharedSequence - IExNG2: 4] (puzzle (switch architecture): Inverted Exclusion NG 2) |  |  | apparent KD of MS2 coat protein ([2]; input ligand: FMN 200 uM): 41.8 nM; apparent KD of MS2 coat protein ([2]; input ligand: none): 551 nM
8 | ACAGGUCGUGAGAAGGAGAGUGGCACCGUCGAAAGACGGUGCAACUAGAAACCUAGAGGAUCACCCUAGGAUAUCACGACCUGA [#SharedSequence - IExNG2: 11] (puzzle (switch architecture): Inverted Exclusion NG 2) |  |  | apparent KD of MS2 coat protein ([2]; input ligand: FMN 200 uM): 6.46 nM; apparent KD of MS2 coat protein ([2]; input ligand: none): 6.32 nM
9 | ACAUACUUUCGAGGAUAUCGGUGAUAAAUUUGACGAGAAGGCGAUAAAAGAUAUAAUCUUAUAGACAUGAGGAUCACCCAUGUA [JR_SSNG1_Sub015] | 36.8 nM | 43.3 nM | 
10 | AGAACAUGAGGAUCACCCAUGUUAAGGUCGGUAAAUAAGGGUGAGGAUAUGCUUAAAAUAAGGUAGCAGAAGGUGCUUGGUGCA [SameState #76 NG3] | 146 nM | 163 nM | 
11 | CACACAUGAGGAUCACCCAUGUCGUGGGCGGAAAACUGUGCACAGGAUAUGGUGAGGGCAACUCACCAGAAGGGUGGUCAGGAA [Zaenen] | 63.1 nM | 100 nM | 
12 | CACACAUGGUGAGGAUAUGCAAAGGAUCACCUUGUAGAAGGCAUCAGGGUAGAAGGUGCAAGGAUCACCUGUAAGGAUAUAUCC [pwkr2 ssNG1 DX.24] | 395 nM | 1210 nM | 
13 | CACCUAAAUCCUAGAGGAUCACCCUAGGAUAUCACCGUCGAGGUGCCAUAAUGGCACCUCGACGGUGAGAAGGAGGGUAAAUAA [#SharedSequence - SLExNG3: 9] (puzzle (switch architecture): Small Loop Exclusion NG 3) |  |  | apparent KD of MS2 coat protein ([2]; input ligand: FMN 200 uM): 6.41 nM; apparent KD of MS2 coat protein ([2]; input ligand: none): 5.82 nM
14 | CACGUCCACACAGGAUAUGCUGGACUUUGUCCAGCAGAAGGGUGACAACAUGAGGAUCACCCAUGUAGGACGUGUAUAUUUAAG [Mat - Same State NG 1 - Eli mod - D100] | 188 nM | 2090 nM | 
15 | CAGCAAUUCUUAGGAUAUGCUCAGGAAUACUGAGCAGAAGGAAGAUAUACCUGAGGAUCACCCAGGUUAAACUGAAGCUGAAAA [Same State NG1 - A3C, U17G Submission 7A] | 28.5 nM | 21.2 nM | 
16 | CAUGUCCUCACAGGAUAUGCUGGACUUUGUCCAGCAGAAGGGUGAACAUGAGGAUCACCCAUGUUGUGGACAUGUAUAUUUAAU [Denovo 12] | 526 nM | 394 nM | 
17 | CGGAUGCAAAUAAAACAUGAGGAUCACCCAUGUGAGUCUCAUGAGGAUAUGCAGGUCAAAGACUUGCAGAAGGCAUGGCGUCCG [Mat - Same State NG 3 - JL Mod - D71] | 107 nM | 1840 nM | 
18 | CGUGUGGCAUGAGGAUAUGGUCAGCUUUGCUGACCAGAAGGCAUGUCAAUAGACAUGAGGAUCACCCAUGUAGUUAACACACGA [Mat - Same State NG 1 - JL Mod - D23] | 44 nM | 575 nM | 

Row | Sequence | apparent KD of MS2 coat protein ([1]; input ligand: FMN 200 uM) | apparent KD of MS2 coat protein ([1]; input ligand: none) | further results
19 | GCAGAAGGUGCAGAGGAUCACCCUGUAAGGAUAUGCAUUAGCAAGGAUAUACAGAGGAUCACCCUGUAGAAGGUGCACUACUCU [pwkr2 ssNG3 DX.2] | 420 nM | 2070 nM | 
20 | GCGGGCCUCACAGGAUAUCUGGUCCCGACAUGAGGAUCACCCAUGUAGGGCAGCUUAAGAAUGCCAGAGAAGGGUGACCAAUAU [Xexemaeron] | 102 nM | 315 nM | 
21 | GCUGCUAUCGCAGGAUAUUACAUGGGAAAGAAUACAUGAGGAUCACCCAUGUAAAAGAUCAUAAAUAAGAAGGGCGAUAGCAGC [Lame State 6 - Jieux - Same State NG 2] | 159 nM | 774 nM | 
22 | GCUGUCGCAUGAGGAUAUGGUCAGCUUUGCUGACCAGAAGGCAUGUCGAUAGACAUGAGGAUCACCCAUGUAGUAAAGACAGCA [jl-sng1-2.08 jl mod] | 66.6 nM | 693 nM | 
23 | GGGAGACAUGAGGAUCACCCAUGUGAGAAGAGGCGAGGAUAUCGAAAGAAAGAAGAGAAACGAGAAGGCGCGAGGG [salish99-SS1-059] |  |  | apparent KD of MS2 coat protein [3]: 57.4 nM; apparent KD of MS2 coat protein [4]: 75 nM
24 | GGGAGACAUGAGGAUCACCCAUGUGAGAAGAGGCGAGGAUAUCGAAAGAAAGAAGAGAAACGAGAAGGCGCGAGUU [salish99-SS1-054] |  |  | apparent KD of MS2 coat protein [3]: 35 nM; apparent KD of MS2 coat protein [4]: 54.7 nM
25 | GGUCGUCACAUCUACAUGAGGAUCACCCAUGUCGAAAGACAUGAGGAUAUGCAUCCUAAUUGGAUGCAGAAGGCAUGGACGACC [Mat - Same State NG 3 - JL Mod - D22] | 65.1 nM | 1920 nM | 
26 | GUAGAACAUGAGGAUCACCCAUGUGAAGACGCAUGAGGAUAUAUCCGUACAUAGCAUACGAUAGAAGGCAUGAUAA [JR_SS001_Sub1704] |  |  | apparent KD of MS2 coat protein [3]: 29.6 nM; apparent KD of MS2 coat protein [4]: 90.6 nM
27 | GUCCAACAUGAGGAUCACCCAUGUAAGCGUGAUCAAGGAUAUGGGCGAAAGAAAACGCAACCAGAAGGUGAGCGCC [Aanmati] |  |  | apparent KD of MS2 coat protein [3]: 160 nM; apparent KD of MS2 coat protein [4]: 135 nM
28 | UAAAAACAUGAGGAUCACCCAUGUGAGAACAUGGGAGGAUAUACAAGGACGAAAGUCAAAGUAGAAGGCCUAAAAU [Mat - Same State 1 - Mod - D176] |  |  | apparent KD of MS2 coat protein [3]: 99.8 nM; apparent KD of MS2 coat protein [4]: 29.3 nM
29 | UAUCAUUACACGAAGGAUAUCGAUAAUUGAACAUGAGGAUCACCCAUGUGACAUAUCUUACAGUUCGAGAAGGUCGAGGGUGAAG [JR_SS002_Sub706] |  |  | apparent KD of MS2 coat protein [3]: 28.9 nM; apparent KD of MS2 coat protein [4]: 52 nM
30 | UCACUCACGUUAGGAUAUGGAUCGGAAAACGAUCCAGAAGGAACCUGCAAACCUGAGGAUCACCCAGGUUCCAAUAACGAGUGA [SameSame 7 - Jieux - Same State NG 1] | 259 nM | 368 nM | 
31 | UGAAAACAUGAGGAUCACCCAUGUCUAGGAAAUCAAGGAUAUGGGCCGGCAAUAGGCGGGCCAGAAGGUGAGAAAU [Arisati] |  |  | apparent KD of MS2 coat protein [3]: 88.7 nM; apparent KD of MS2 coat protein [4]: 144 nM
32 | UGAUUGAGAUUGUAGGAUAUUGGAAAAGCCACAUGAGGAUCACCCAUGUCAAAAAAAAAAAAAAACAAGAAGGGCGGUUUUAGUUA [Same State 2] |  |  | apparent KD of MS2 coat protein [3]: 58.4 nM; apparent KD of MS2 coat protein [4]: 64.5 nM
33 | UGUUUGAGCAUAGGAUAUACUGGGAAGGUCCACAUGAGGAUCACCCAUGUAGAGGCUGUUAGACAGUAGAAGGGUGAUCCGAUA [Zariatbege] | 410 nM | 9.94 nM | 
34 | UUAAGCCGCGGGCAGGAUAUGUAUUAAAAUACAUGAGGAUCACCCAUGUGCAGGUGUAACACCUGACAGAAGGGCCAAUCGCAGC [Ceanreerqu] |  |  | apparent KD of MS2 coat protein [3]: 26.4 nM; apparent KD of MS2 coat protein [4]: 228 nM
35 | UUACGUCCCGUUUACAUGAGGAUCACCCAUGUCGAAAGAACCGAGGAUAUGCUACCUAGUUGGUAGCAGAAGGCGGAAACGUCG [salish99_SSNG3_r02_008] | 42.3 nM | 25.9 nM | 
36 | UUUAGGAAGAGAGAGGAUAUCCAAAGGAAAACAUGAGGAUCACCCAUGUAAAAGGUAGGAAAUUGGGAGAAGGCUCAAGAGAGAG [salish99-ss2-078] |  |  | apparent KD of MS2 coat protein [3]: 5.84 nM; apparent KD of MS2 coat protein [4]: 16.5 nM
